Residue numbers refer to the chain shown, from its start.
B1: Ketose 3-epimerase mutant 18: amino acid-substituted mutant of SEQ ID NO: 1 (protein)
chain: MKIGCHGLVWTGRFDAEGIRYSVQKTKEAGFDLIEFPLMDPFSFDVATAKSALAEHGLTASASLGLSEATDVSSEDPAIVKAGEELLNRALDVLAELGATEFCGVIYSAMKKYMEPATEQGLSNSKAAVGRVVDRAAGLGINVSLEVVNRYETNVLNTGRQALSYLSDVKRPNLGVHLDTYHMNIEESDMFSPVLDTAEALKYVHIGESHRGYLGTGSVDFDNFFKALGRIGYDGPVVFESFSSAVVAPDLSRMLGIWRNLWADNEELGAHANAFIRDKLTAIKTIELH
modifications: Arthrobacter histidinolovorans
B2: Ketose 3-epimerase mutant 34: amino acid-substituted mutant of SEQ ID NO: 1 (protein)
chain: B1 chain with E101D, A128V
modifications: Arthrobacter histidinolovorans
B3: Ketose 3-epimerase mutant 31: amino acid-substituted mutant of SEQ ID NO: 1 (protein)
chain: B1 chain with E101D, E199D
modifications: Arthrobacter histidinolovorans
B4: Ketose 3-epimerase mutant 27: amino acid-substituted mutant of SEQ ID NO: 1 (protein)
chain: B1 chain with V129I
modifications: Arthrobacter histidinolovorans
B5: Ketose 3-epimerase mutant 29: amino acid-substituted mutant of SEQ ID NO: 1 (protein)
chain: B1 chain with H56Y, E101D
modifications: Arthrobacter histidinolovorans
B6: Ketose 3-epimerase mutant 32: amino acid-substituted mutant of SEQ ID NO: 1 (protein)
chain: B1 chain with P77S, E101D
modifications: Arthrobacter histidinolovorans
B7: Ketose 3-epimerase mutant 24: amino acid-substituted mutant of SEQ ID NO: 1 (protein)
chain: B1 chain with E101D, S167Q
modifications: Arthrobacter histidinolovorans
B8: Ketose 3-epimerase mutant 23: amino acid-substituted mutant of SEQ ID NO: 1 (protein)
chain: B1 chain with E101D, P172G
modifications: Arthrobacter histidinolovorans
B9: Ketose 3-epimerase mutant 26: amino acid-substituted mutant of SEQ ID NO: 1 (protein)
chain: B1 chain with L97M, E101D
modifications: Arthrobacter histidinolovorans
B10: Ketose 3-epimerase mutant 30: amino acid-substituted mutant of SEQ ID NO: 1 (protein)
chain: B1 chain with E101D, S144A
modifications: Arthrobacter histidinolovorans
B11: Ketose 3-epimerase mutant 25: amino acid-substituted mutant of SEQ ID NO: 1 (protein)
chain: B1 chain with E101D, K202R
modifications: Arthrobacter histidinolovorans
B12: Ketose 3-epimerase mutant 21: amino acid-substituted mutant of SEQ ID NO: 1 (protein)
chain: B1 chain with T59S, A60V
modifications: Arthrobacter histidinolovorans
B13: Ketose 3-epimerase mutant 28: amino acid-substituted mutant of SEQ ID NO: 1 (protein)
chain: B1 chain with V129I, A200V, S218N
modifications: Arthrobacter histidinolovorans
B14: Ketose 3-epimerase mutant 19: amino acid-substituted mutant of SEQ ID NO: 1 (protein)
chain: B1 chain with T59S, A60V, E101D, V129I, A200V, S218N
modifications: Arthrobacter histidinolovorans
B15: Ketose 3-epimerase mutant 22: amino acid-substituted mutant of SEQ ID NO: 1 (protein)
chain: B1 chain with T59S, A60V, P77S, L94V, A109S, V129I, S144A, S167Q, A200V, S218N
modifications: Arthrobacter histidinolovorans
B16: Ketose 3-epimerase mutant 20: amino acid-substituted mutant of SEQ ID NO: 1 (protein)
chain: B1 chain with T59S, A60V, E101D, V129I
modifications: Arthrobacter histidinolovorans
B17: Ketose 3-epimerase mutant 35: amino acid-substituted mutant of SEQ ID NO: 1 (protein)
chain: B1 chain with E101D, V132I
modifications: Arthrobacter histidinolovorans
B18: Ketose 3-epimerase mutant 33: amino acid-substituted mutant of SEQ ID NO: 1 (protein)
chain: B1 chain with T59S, A60V, A200V, S218N
modifications: Arthrobacter histidinolovorans

Assay: Thermal stability: residual activity after incubation at 60° C. for one hour
Format: biochemical
Details: crude recombinant enzyme; after incubation at 60° C. for 1 hour
Method: Thermal stability of the enzyme was investigated by measuring the activity of the enzyme after incubation at 60° C. for one hour and finding its relative activity supposing that the activity at 60° C. under the reaction conditions (10 minutes) used for determining the optimum temperature in the above 2 shown in Table 2 was 100. As heat treatment conditions, the crude enzyme solution, a buffer (50 mM tris-HCl, pH 7.5), and 2 mM MgCl2 were used to give a total amount of 200 p1 and after retaining at 60° C. for one hour, the reaction mixture was cooled for 10 minutes in ice water. The residual enzyme activity was then measured by the conventional method.
The activity of each of the present enzyme (crude recombinant enzyme) and the crude enzyme of the control enzyme after incubation at 60° C. for 1 hour was measured and a relative activity of it was determined supposing that the activity at 60° C. under the reaction conditions (10 minutes) for determining the optimum temperature in the above 2 shown in Table 2 is 100. The relative activity was used as a heat resistance index of the enzyme. As heat treatment conditions, the crude enzyme solution, a buffer (50 mM tris-HCl, pH 7.5), and 2 mM MgCl2 were used to give a total amount of 200 p1 and after retaining at 60° C. for one hour, the reaction mixture was cooled for 10 minutes in ice water. The residual enzyme activity was measured by the conventional method.

**Q.** For B1, which “Residual activity (%)” value is on record?
**A.** 72.1%

**Q.** Which “Residual activity (%)” value does the source give for B2 here?
**A.** 57.2%

**Q.** With B3 as the molecule, how does the “Residual activity (%)” value read?
**A.** 58.1%

**Q.** Which “Residual activity (%)” value does the source give for B4 here?
**A.** 61.9%

**Q.** Which “Residual activity (%)” value does the source give for B5 here?
**A.** 56.8%

**Q.** With B6 as the molecule, how does the “Residual activity (%)” value read?
**A.** 39.9%

**Q.** With B7 as the molecule, how does the “Residual activity (%)” value read?
**A.** 55.4%

**Q.** With B8 as the molecule, how does the “Residual activity (%)” value read?
**A.** 65.8%

**Q.** With B9 as the molecule, how does the “Residual activity (%)” value read?
**A.** 68.9%

**Q.** For B10, which “Residual activity (%)” value is on record?
**A.** 66.9%

**Q.** For B11, which “Residual activity (%)” value is on record?
**A.** 51.4%

**Q.** With B12 as the molecule, how does the “Residual activity (%)” value read?
**A.** 59.4%

**Q.** For B13, which “Residual activity (%)” value is on record?
**A.** 112.7%

**Q.** Which “Residual activity (%)” value does the source give for B14 here?
**A.** 91.2%

**Q.** For B15, which “Residual activity (%)” value is on record?
**A.** 113.5%

**Q.** For B16, which “Residual activity (%)” value is on record?
**A.** 52.1%

**Q.** For B17, which “Residual activity (%)” value is on record?
**A.** 69.2%

**Q.** With B18 as the molecule, how does the “Residual activity (%)” value read?
**A.** 91.0%

Assay: Ketose 3-epimerase activity ratio (T70/T50) at reaction temperature of 70° C. to 50° C.
Format: biochemical
Details: crude recombinant enzyme; ratio of activity at 70° C. to activity at 50° C., 10 min reaction
Method: An enzyme having higher heat resistance than an amino acid substitution-free wild type enzyme can be obtained by introducing mutation into the gene of the ketose 3-epimerase of the present invention and substituting the corresponding amino acid residue with another amino acid residue by a site-directed mutagenesis operation to prepare various amino acid-substituted mutants. The heat resistance is evaluated by two indices, that is, a ketose 3-epimerase activity ratio (T70/T50) at the reaction temperatures of 70° C. to 50° C. and a residual activity after incubation at 60° C. for one hour.
Heat resistance of the present enzyme (crude recombinant enzyme) and the crude enzyme of the control enzyme was investigated by measuring an activity at 70° C. and an activity at 50° C. under the reaction conditions (10 minutes) used for determining the optimum temperature in the above 2 shown in Table 2 and finding their ratio (T70/T50).

**Q.** With B1 as the molecule, how does the T70/T50 read?
**A.** 1.85

**Q.** With B2 as the molecule, how does the T70/T50 read?
**A.** 1.38

**Q.** With B3 as the molecule, how does the T70/T50 read?
**A.** 1.54

**Q.** For B4, which T70/T50 is on record?
**A.** 1.64

**Q.** For B5, which T70/T50 is on record?
**A.** 1.58

**Q.** For B6, which T70/T50 is on record?
**A.** 1.53

**Q.** For B7, which T70/T50 is on record?
**A.** 1.68

**Q.** Which T70/T50 does the source give for B8 here?
**A.** 1.69

**Q.** With B9 as the molecule, how does the T70/T50 read?
**A.** 1.65

**Q.** For B10, which T70/T50 is on record?
**A.** 1.57

**Q.** For B11, which T70/T50 is on record?
**A.** 1.66

**Q.** With B12 as the molecule, how does the T70/T50 read?
**A.** 1.70

**Q.** With B13 as the molecule, how does the T70/T50 read?
**A.** 1.62

**Q.** For B14, which T70/T50 is on record?
**A.** 1.85

**Q.** For B15, which T70/T50 is on record?
**A.** 1.70

**Q.** For B16, which T70/T50 is on record?
**A.** 1.79

**Q.** For B17, which T70/T50 is on record?
**A.** 1.34

**Q.** With B18 as the molecule, how does the T70/T50 read?
**A.** 1.46
